Results from paper PMC4100105, “A Novel VHH Antibody Targeting the B Cell-Activating Factor for B-Cell Lymphoma” (International Journal of Molecular Sciences, 2014).

Legend:
[1] = molecular target: T1, B cell-activating factor (BAFF) (UniProt Q9Y275, biotin (NHS-LC-Biotin, 3:1 molar ratio of biotin to protein) in the BLI assay; not biotinylated when coated on ELISA plates); assay: ELISA; competition ELISA; BAFF (10 ug/mL) coated; sdAb (0-500 ug/mL) mixed with BCMA (50 ug/mL), 2 h at 37 C; bound BCMA detected with HRP goat anti-human IgG; details: both partners purified
T1 construct: probably a soluble recombinant human BAFF (surmise); The same antigen was used for immunisation, panning, BLI, ELISA and the cell assay; also called B lymphocyte stimulator; BLyS

[2] = molecular target: T1, B cell-activating factor (BAFF); assay: BLI; Octet RED; biotinylated BAFF (20 ug/mL) loaded on streptavidin biosensors; sdAbs 1.25-20 uM as analyte; PBST (PBS pH 7.4, 0.1% BSA, 0.02% Tween-20); room temperature; association 300 s, dissociation 1500 s; global 1:1 fit; 'relative affinity'; details: both partners purified
[3] = molecular target: T1, B cell-activating factor (BAFF)
[4] = molecular target: T1, B cell-activating factor (BAFF); assay: ELISA; competition ELISA; BAFF (10 ug/mL) coated; sdAb (0-100 ug/mL) mixed with TACI (10 ug/mL), 2 h at 37 C; bound TACI detected with HRP goat anti-human IgG; details: both partners purified
[5] = molecular target: T1, B cell-activating factor (BAFF); assay: cell-based or functional assay

Kd [2] [nM]	koff [2] [s⁻¹]	kon [2] [M⁻¹ s⁻¹]	binding result [3]	Binder	also measured
823	0.00239	2900	–	anti-BAFFG3 (VHH, Soluble sdAb of about 15 kDa from an immune alpaca library; also called clone G3; anti-BAFFG3 sdAb; source: E. coli TG1, periplasm, vector pSJF2, purified (Ni-NTA)) VHH: HVQLVDSGGGLVAGGSLRLSCAASGRTFSMSAVAWFRQAPGKEREFVAAISKSSISTYYADSVKGRFTISRDNARNTVNLQMNSLKPEDTAVYYCNSALNGRLPGRHWGQGTQVTVSS	inhibition ratio of BCMA binding to BAFF at 500 ug/mL sdAb [1]: 33%
–	–	–	binds	baff41 (VHH) VHH: HVQLVDSGGGLVQPGGSLRLSCTASGRTFRDYAMGWFRQAPGKEREFVAAIIGRGASTQYADFVKGRFTISRDNAKNTVYLQMNSLRPEDTAVYYCHAYDPRRNGDYWGQGTQVTVSS	–
3180	0.0182	5710	–	anti-BAFF52 (VHH, Soluble sdAb of about 15 kDa from an immune alpaca library; also called clone 52; anti-BAFF52 sdAb; source: E. coli TG1, periplasm, vector pSJF2, purified (Ni-NTA)) VHH: HVQLVDSGGGLVQAGGSLRLSCAASGRSFKNYHMGWFRQAPGKEREFVAAINGRGSRTKYADSVKGRFTISRDNAERTVRLEMNSLKPEDTAVYYCAAGGPEFYRGRLEDYAYWGPGTQVTVSS	–
–	–	–	binds	bafff4 (VHH) VHH: HVQLVDSGGGLVQAGGSLRLSCTVSGRTSRYAMAWFRQAPGKGREFVAGVNRSGGRPNYSNSVKGRFTISRDNAKNTVYLQMNGLKPEDTAVYYCAAEDRISQSYEYWGQGTQVTVSS	–
–	–	–	binds	baffh1 (VHH) VHH: HVQLVDSGGGSVQTGDSLTLSCVQSGRTFRSYAMAWYRQAPGKERELVARISSGYSTNYLDSVKGRFTISRDNDKNTFYLQMNSLRPEDTAVYYCNSALNGRLPGRHWGQGTQVTVSS	–
319	0.000729	2290	–	anti-BAFF64 (VHH, Soluble sdAb of about 15 kDa from an immune alpaca library; also called clone 64; anti-BAFF64 sdAb; source: E. coli TG1, periplasm, vector pSJF2, purified (Ni-NTA)) VHH: QVQLVDSGGGLVQAGGSLRLSCVASGALISRRGMGWYRQAPGRQRELVAGISSDGTTNYAQSVEGRFTISRDNAKRSVYLQMNSLKPEDTAVYYCHARTRWKSYWGQGTQVTVSS	inhibition ratio of TACI binding to BAFF at 100 ug/mL sdAb [4]: 31%; inhibitory ratio of BAFF-induced (750 ng/mL) Raji cell proliferation, CCK-8 assay, sdAb 0-100 ug/mL; value at 100 ug/mL [5]: 55%
–	–	–	binds	baffb11 (VHH) VHH: HVQLVDSGGGLVQAGGSLRLSCAASGRTFSSYAMGWFRQAPGKEREFVAAISWSGGRTYYADSVKGRFTISRNNAKNTVYLQMNNLKPEDAAVYYCAARSRASLSGTPLSSPSYYRYWGQGTQVTVSS	–
–	–	–	binds	baffc6 (VHH) VHH: HVQLVDSGGGLVQAGGSLRLSCAAPRNTFSRYAMAWYRQAPGKRRESVASISSGGISHYTDSVKGRFTISRDNAKNTVYLQMNSLKPEDSAVYYCAASREWGLLRHRPGYWGQGTQVTVSS	–
–	–	–	binds	baffb2 (VHH) VHH: HVQLVDSGGGLVQAGGSLRLSCAASGRSFRRYAMAWFRQTPGKEREFVAAISRSGGSTSYADSVKGRFTISRDNVKNTVYLQMNSLKPEDTAIYYCAADRWGSPTDLRLPRELDYWGQGTHVTVSS	–
